A short description of this series: total protein half-life in vivo (active degradation + dilution); higher = more stable protein.
The mark [1] stands for this setting: E. coli NCM3722 delta-clpP delta-lon delta-hslV, growth: N-lim chemostat, doubling time 6 h.
Where [2] appears, read: E. coli NCM3722 delta-hslV, growth: N-lim chemostat, doubling time 6 h.
Setting [3] is: E. coli NCM3722 delta-lon, growth: N-lim chemostat, doubling time 6 h.
Setting [4] is: E. coli NCM3722 delta-smpB, growth: N-lim chemostat, doubling time 6 h.
Setting [5] is: wild type E. coli NCM3722, growth: C-lim chemostat, doubling time 3 h.
[6] abbreviates: wild type E. coli NCM3722, growth: C-lim chemostat, doubling time 6 h.
Where [7] appears, read: wild type E. coli NCM3722, growth: C-lim chemostat, doubling time 12 h.
The mark [8] stands for this setting: wild type E. coli NCM3722, growth: N-lim chemostat, doubling time 6 h.
Setting [9] is: wild type E. coli NCM3722, growth: N-lim chemostat, doubling time 12 h.
The mark [10] stands for this setting: wild type E. coli NCM3722, growth: P-lim chemostat, doubling time 6 h.
The mark [11] stands for this setting: wild type E. coli NCM3722, growth: P-lim chemostat, doubling time 12 h.
[12] abbreviates: E. coli NCM3722 delta-clpP, growth: N-lim chemostat, doubling time 6 h.

± gives the standard deviation of the averaged measurements.

Results on six sequences are retold here after the supplement of paper PMC11246515.

In the case of “MPTQEAKAHHVGEWASLRNTSPEIAEAIFEVAGYDEKMAEKIWEEGSDEVLVKAFAKTDKDSLFWGEQTIERKNV [P0AB14]”, the “total protein half-life in vivo” value reads like this: under setting [1], 5.53 ± 0.41 h; under setting [2], 2.63 h; under setting [3], 3.45 ± 0.75 h; under setting [4], 2.46 ± 0.13 h; under setting [5], 2.55 ± 0.13 h; under setting [6], 4.15 ± 0.58 h. The “total protein half-life in vivo” value worked out at 5.68 ± 1 h under setting [7]; 2.39 ± 0.054 h under setting [8]; 3.85 ± 1.1 h under setting [9]; 3.02 ± 0.39 h under setting [10]; 5.43 ± 0.18 h under setting [11].

As to “MMNDSFCRIIAGEIQARPEQVDAAVRLLDEGNTVPFIARYRKEITGGLDDTQLRNLETRLSYLRELEERRQAILKSISEQGKLTDDLAKAINATLSKTELEDLYLPYKPKRRTRGQIAIEAGLEPLADLLWSDPSHTPEVAAAQYVYADKGVADTKAALDGARYILMERFAEDAALLAKVRDYLWKNAHLVSTVVSGKEEEGAKFRDYFDHHEPLSTVPSHRALAMFRGRNEGVLQLSLNADPQFDEPPKESYCEQIIMDHLGLRLNNAPADSWRKGVVSWTWRIKVLMHLETELMGTVRERAEDEAINVFARNLHDLLMAAPAGLRATMGLDPGLRTGVKVAVVDATGKLVATDTIYPHTGQAAKAAMTVAALCEKHNVELVAIGNGTASRETERFYLDVQKQFPKVTAQKVIVSEAGASVYSASELAAQEFPDLDVSLRGAVSIARRLQDPLAELVKIDPKSIGVGQYQHDVSQTQLARKLDAVVEDCVNAVGVDLNTASVPLLTRVAGLTRMMAQNIVAWRDENGQFQNRQQLLKVSRLGPKAFEQCAGFLRINHGDNPLDASTVHPEAYPVVERILAATQQALKDLMGNSSELRNLKASDFTDEKFGVPTVTDIIKELEKPGRDPRPEFKTAQFADGVETMNDLQPGMILEGAVTNVTNFGAFVDIGVHQDGLVHISSLSNKFVEDPHTVVKAGDIVKVKVLEVDLQRKRIALTMRLDEQPGETNARRGGGNERPQNNRPAAKPRGREAQPAGNSAMMDALAAAMGKKR”, the “total protein half-life in vivo” value under setting [1] was 5.48 ± 0.19 h; the “total protein half-life in vivo” value under setting [12] came to 4.8 ± 0.3 h; the “total protein half-life in vivo” value under setting [2] turned out to be 3.58 ± 0.041 h; the “total protein half-life in vivo” value under setting [3] was 4.124 ± 0.019 h; the “total protein half-life in vivo” value under setting [4] is 3.26 ± 0.074 h; the “total protein half-life in vivo” value under setting [5] turned out to be 2.49 ± 0.14 h. The “total protein half-life in vivo” value runs as follows: under setting [6], 4.69 ± 0.19 h; under setting [7], 7.55 ± 0.32 h; under setting [8], 3.63 ± 0.087 h; under setting [9], 5.457 ± 0.049 h; under setting [10], 3.88 ± 0.065 h; under setting [11], 6.81 ± 0.56 h.

On to “MIKLSEKGVFLASNNEIIAEEHFTGEIKKEEAKKGTIAWSILSSHNTSGNMDKLKIKFDSLASHDITFVGIVQTAKASGMERFPLPYVLTNCHNSLCAVGGTINGDDHVFGLSAAQRYGGIFVPPHIAVIHQYMREMMAGGGKMILGSDSHTRYGALGTMAVGEGGGELVKQLLNDTWDIDYPGVVAVHLTGKPAPYVGPQDVALAIIGAVFKNGYVKNKVMEFVGPGVSALSTDFRNSVDVMTTETTCLSSVWQTDEEVHNWLALHGRGQDYCQLNPQPMAYYDGCISVDLSAIKPMIALPFHPSNVYEIDTLNQNLTDILREIEIESERVAHGKAKLSLLDKVENGRLKVQQGIIAGCSGGNYENVIAAANALRGQSCGNDTFSLAVYPSSQPVFMDLAKKGVVADLIGAGAIIRTAFCGPCFGAGDTPINNGLSIRHTTRNFPNREGSKPANGQMSAVALMDARSIAATAANGGYLTSASELDCWDNVPEYAFDVTPYKNRVYQGFVKGATQQPLIYGPNIKDWPELGALTDNIVLKVCSKILDEVTTTDELIPSGETSSYRSNPIGLAEFTLSRRDPGYVSRSKATAELENQRLAGNVSELTEVFARIKQIAGQEHIDPLQTEIGSMVYAVKPGDGSAREQAASCQRVIGGLANIAEEYATKRYRSNVINWGMLPLQMAEVPTFEVGDYIYIPGIKAALDNPGTTFKGYVIHEDAPVTEITLYMESLTAEEREIIKAGSLINFNKNRQM”, for which the “total protein half-life in vivo” value is 5.63 h under setting [12]; 6.45 h under setting [2]; 1.12 h under setting [5]; 1.87 ± 0.76 h under setting [6]; 2.37 h under setting [10]; 1.31 ± 0.42 h under setting [11].

On to “MKNTELEQLINEKLNSAAISDYAPNGLQVEGKETVQKIVTGVTASQALLDEAVRLGADAVIVHHGYFWKGESPVIRGMKRNRLKTLLANDINLYGWHLPLDAHPELGNNAQLAALLGITVMGEIEPLVPWGELTMPVPGLELASWIEARLGRKPLWCGDTGPEVVQRVAWCTGGGQSFIDSAARFGVDAFITGEVSEQTIHSAREQGLHFYAAGHHATERGGIRALSEWLNENTDLDVTFIDIPNPA [P0AFP6]”, for which the “total protein half-life in vivo” value was 4.31 ± 0.15 h under setting [1]; 3.736 ± 0.0077 h under setting [12]; 3.9 ± 0.38 h under setting [2]; 4.42 ± 0.65 h under setting [3]; 3.7 ± 0.28 h under setting [4]; 2.86 ± 0.27 h under setting [5]. Besides, the “total protein half-life in vivo” value reads like this: under setting [6], 6.13 ± 0.52 h; under setting [7], 10.3 ± 0.29 h; under setting [8], 3.66 ± 0.23 h; under setting [9], 5.74 ± 0.75 h; under setting [10], 5.26 ± 0.41 h; under setting [11], 11.2 ± 1.2 h.

Consider “MSTPRQILAAIFDMDGLLIDSEPLWDRAELDVMASLGVDISRRNELPDTLGLRIDMVVDLWYARQPWNGPSRQEVVERVIARAISLVEETRPLLPGVREAVALCKEQGLLVGLASASPLHMLEKVLTMFDLRDSFDALASAEKLPYSKPHPQVYLDCAAKLGVDPLTCVALEDSVNGMIASKAARMRSIVVPAPEAQNDPRFVLADVKLSSLTELTAKDLLG”, for which the “total protein half-life in vivo” value is 4.76 ± 0.9 h under setting [1]; 5.14 ± 0.84 h under setting [12]; 4.544 ± 0.045 h under setting [2]; 5.444 ± 0.011 h under setting [3]; 4.27 ± 0.18 h under setting [4]; 2.99 ± 0.3 h under setting [5]. The “total protein half-life in vivo” value by setting is: under setting [6], 5.48 ± 0.35 h; under setting [7], 12.1 ± 3 h; under setting [8], 4.47 ± 0.14 h; under setting [9], 8.91 ± 1.3 h; under setting [10], 5.65 ± 0.52 h; under setting [11], 12.3 ± 0.28 h.

Consider “MKLPVREFDAVVIGAGGAGMRAALQISQSGQTCALLSKVFPTRSHTVSAQGGITVALGNTHEDNWEWHMYDTVKGSDYIGDQDAIEYMCKTGPEAILELEHMGLPFSRLDDGRIYQRPFGGQSKNFGGEQAARTAAAADRTGHALLHTLYQQNLKNHTTIFSEWYALDLVKNQDGAVVGCTALCIETGEVVYFKARATVLATGGAGRIYQSTTNAHINTGDGVGMAIRAGVPVQDMEMWQFHPTGIAGAGVLVTEGCRGEGGYLLNKHGERFMERYAPNAKDLAGRDVVARSIMIEIREGRGCDGPWGPHAKLKLDHLGKEVLESRLPGILELSRTFAHVDPVKEPIPVIPTCHYMMGGIPTKVTGQALTVNEKGEDVVVPGLFAVGEIACVSVHGANRLGGNSLLDLVVFGRAAGLHLQESIAEQGALRDASESDVEASLDRLNRWNNNRNGEDPVAIRKALQECMQHNFSVFREGDAMAKGLEQLKVIRERLKNARLDDTSSEFNTQRVECLELDNLMETAYATAVSANFRTESRGAHSRFDFPDRDDENWLCHSLYLPESESMTRRSVNMEPKLRPAFPPKIRTY [P0AC41]”, for which the “total protein half-life in vivo” value under setting [1] is 6.32 ± 0.098 h; the “total protein half-life in vivo” value under setting [12] was 6.04 ± 0.75 h; the “total protein half-life in vivo” value under setting [2] turned out to be 5.73 ± 0.33 h; the “total protein half-life in vivo” value under setting [3] is 5.17 ± 0.66 h; the “total protein half-life in vivo” value under setting [4] worked out at 5.69 ± 0.26 h; the “total protein half-life in vivo” value under setting [5] was found to be 3.17 ± 0.15 h. In addition, the “total protein half-life in vivo” value runs as follows: under setting [6], 6.49 ± 0.39 h; under setting [7], 11.6 ± 1.4 h; under setting [8], 5.81 ± 0.35 h; under setting [9], 11 ± 0.49 h; under setting [10], 6.2 ± 0.12 h; under setting [11], 13.3 ± 0.3 h.
